Data set [1] concerns SH-SY5Y. As to the kind of experiment: IFNγ release in co-culture with SH-SY5Y. The following applies: for IFNγ release: Example 7, co-culture with SH-SY5Y, FIG. 8D-8F. Type of data set: cell-based, human. The source says: (§1) In addition to the cytotoxicity data above, supernatants from the in vitro co-culture assays were also collected to assess CAR T cells-induced cytokine release, e.g., release of interferon gamma (i.e., IFNγ), as another indicator of cytotoxicity, was quantified using a HTRF human IFNγ AlphaLISA kit (Perkin Elmer, #62HIFNGPEH) per manufacturer's instruction. […] No significant cytokine release were detected against GPC2-negative cell line A-431.
(§2) Supernatants from the in vitro co-culture assays were collected to assess CAR T cells-induced cytokine release, e.g., interferon gamma (i.e., IFNγ) release as described in Example 6. […] IFNγ was not induced in GPC2-negative A-431 cells. […] Cytokine release data was consistent with the in vitro cytotoxicity data.

The test system of data set [2] is SH-SY5Y. As to the kind of experiment: Serial challenge assay, CAR Ts with different co-stimulatory domains. The following applies: for CAR positive T cells percentage: serial SH-SY5Y challenge, FIG. 14B. Type of data set: cell-based, human. From the text: To evaluate the persistence of GPC2 CAR T cells, exemplary CAR T cells were selected and tested in the serial challenge assay. Briefly, 4×10^5 SH-SY5Y cells and 1.33×10^5 CART cells transduced with GPC2-BBz, GPC2-CD28z, GPC2-CD27z, GPC2-CD2z, GPC2-ICOSz or GPC2-OX40z lentiviral vectors were co-cultured in 12 well plates using fresh growth medium without IL-2 (E:T ratio=1:3). Cells were harvested after three days co-culture and samples were taken for cell counting using AOPI and T cell quantified by FACs. CAR T cells were replated with fresh SH-SY5Y cells at a 1:2 E:T ratio in growth medium without IL-2 to start the next round of tumor co-culture. Samples were taken for cell counting and T cell quantification at the end of each challenge every three days. GPC2-BBz served as a positive control while the untransduced T cell (UnT) was used as a negative control.

The next data set has as its system IMR-32. As to the kind of experiment: IFNγ release in co-culture with IMR-32. The following applies: Example 7, co-culture with IMR-32, FIG. 8D-8F. In kind it is cell-based, human.
Excerpt: as §1, §2

Data set [3] concerns neuroblastoma SH-SY5Y xenograft. In kind it is in vivo, NCG mice. The following applies: mouse, in vivo. Here is the method:
A single dose of untransduced T cells (10×10^6) or CAR T cells (5×10^6) was administered intravenously to tumor engrafted mice 9 days after tumor inoculation (FIG. 9A). […] At the end of obversion, 100% of monovalent CAR T cells (CAS70950VH6-BBz, CAS72669VH6-BBz) and 80% of multi-valent CAR T cells (CAS70950VH6-AS71529VH6-BBz) treated mice were alive (FIG. 9A). At day 42 post treatment, 2/5 mice (40%) treated with CAS72669VH6-BBz expressing CAR T cells were tumor-free and 3/5 mice (60%) treated with CAS70950VH6-AS71529VH6-BBz expressing CAR T cells were tumor-free without recurrence. […] The data highlighted the superiority of VHH-based CAR T cells in tumor regression and protection of mice from disease progression.
Moreover, the expansion and persistence of CAR T cells in vivo are also considered as critical predictors of durable clinical tumor regression in patients with cancer. […] Average 5.00±6.42% of CAR T cells were found in the peripheral blood of NCG mice treated with 5×10^6 CAS70950VH6-AS71529VH6-BBz CAR T cells, whereas less than 1% CAR T cells were detected in CAS70950VH6-BBz, CAS72669VH6-BBz and CAS71529VH6-BBz expressing CAR T groups. Expansion of CAR T cells in the CAS70950VH6-AS71529VH6-BBz group was inversely correlated with tumor size over time.

B1: GPC2-CD28z: SEQ ID NO: 248, GPC2 CAR T comprised CD28 and CD3 ζ intracellular signaling domains (protein)
chain: MALPVTALLLPLALLLHAARPEVQLVESGGGLVQPGGSLRLSCAISEFTYKNTCVGWFRQAPGKGREGVAAIDSDGNTNYVDSVKGRFTISQDNSKNTVYLQMNSLRAEDTAMYYCAAGAYCGRLLLWIGNYAYWGQGTLVTVSSIEVMYPPPYLDNEKSNGTIIHVKGKHLCPSPLFPGPSKPFWVLVVVGGVLACYSLLVTVAFIIFWVRSKRSRLLHSDYMNMTPRRPGPTRKHYQPYAPPRDFAAYRSRVKFSRSADAPAYKQGQNQLYNELNLGRREEYDVLDKRRGRDPEMGGKPRRKNPQEGLYNELQKDKMAEAYSEIGMKGERRRGKGHDGLYQGLSTATKDTYDALHMQALPPR
modifications: expressed in CAR T cells; GPC2-CD28z
Consider B1, for which the “IFNγ production against SH-SY5Y” value with SH-SY5Y [1] (GPC2 CAR Ts with different co-stimulatory domains, FIG. 13B) is listed as “higher level of IFNγ production”. The “long term persistence and CAR T cells expansion” value in the data set with SH-SY5Y [2] (serial SH-SY5Y challenge without IL-2, FIG. 14A and 14C) was “comparable level of long term persistence and CAR T cells expansion”. The “CAR positive T cells percentage” value in the data set with SH-SY5Y [2] is “expanded and reaching a peak level”.

B2: CAS71529VH6-BBz: humanized VHH anti-GPC2 CAR (4-1BB, CD3ζ), SEQ ID NO: 223; tested as CAR T cells (protein)
chain: MALPVTALLLPLALLLHAARPEVQLVESGGGLVQPGGSLRLSCAVSEYRYSSRYCMGWFRQAPGKGREGVAAIDSNGSADYVDSVKGRFTISKDNSKNTLYLQMNSLRAEDTAMYYCAADHLAYDCYSGATSVFRYWGQGTLVTVSSTTTPAPRPPTPAPTIASQPLSLRPEACRPAAGGAVHTRGLDFACDIYIWAPLAGTCGVLLLSLVITLYCKRGRKKLLYIFKQPFMRPVQTTQEEDGCSCRFPEEEEGGCELRVKFSRSADAPAYKQGQNQLYNELNLGRREEYDVLDKRRGRDPEMGGKPRRKNPQEGLYNELQKDKMAEAYSEIGMKGERRRGKGHDGLYQGLSTATKDTYDALHMQALPPR
modifications: expressed in CAR T cells; CAS71529VH6-BBz
B2: the IFNγ release entry in the data set on SH-SY5Y [1] and with IMR-32 was “high levels of IFNγ” in each case. Further, the “percentage of CAR T cells in peripheral blood” value in data set [3] is recorded as “less than 1%”.

B3: GPC2-ICOSz: SEQ ID NO:250, GPC2 CAR T comprised ICOS and CD3 ζ intracellular signaling domains (protein)
chain: MALPVTALLLPLALLLHAARPEVQLVESGGGLVQPGGSLRLSCAISEFTYKNTCVGWFRQAPGKGREGVAAIDSDGNTNYVDSVKGRFTISQDNSKNTVYLQMNSLRAEDTAMYYCAAGAYCGRLLLWIGNYAYWGQGTLVTVSSTTTPAPRPPTPAPTIASQPLSLRPEACRPAAGGAVHTRGLDFACDFWLPIGCAAFVVVCILGCILICWLTKKKYSSSVHDPNGEYMFMRAVNTAKKSRLTDVTLRVKFSRSADAPAYKQGQNQLYNELNLGRREEYDVLDKRRGRDPEMGGKPRRKNPQEGLYNELQKDKMAEAYSEIGMKGERRRGKGHDGLYQGLSTATKDTYDALHMQALPPR
modifications: expressed in CAR T cells; GPC2-ICOSz
In the case of B3, the “CAR positive T cells percentage” value in the data set with SH-SY5Y [2] is “gradual decline”.

B4: GPC2-OX40z: SEQ ID NO:252, GPC2 CAR T comprised OX40 and CD3 ζ intracellular signaling domains (protein)
chain: MALPVTALLLPLALLLHAARPEVQLVESGGGLVQPGGSLRLSCAISEFTYKNTCVGWFRQAPGKGREGVAAIDSDGNTNYVDSVKGRFTISQDNSKNTVYLQMNSLRAEDTAMYYCAAGAYCGRLLLWIGNYAYWGQGTLVTVSSTTTPAPRPPTPAPTIASQPLSLRPEACRPAAGGAVHTRGLDFACDVAAILGLGLVLGLLGPLAILLALYLLRRDQRLPPDAHKPPGGGSFRTPIQEEQADAHSTLAKIRVKFSRSADAPAYKQGQNQLYNELNLGRREEYDVLDKRRGRDPEMGGKPRRKNPQEGLYNELQKDKMAEAYSEIGMKGERRRGKGHDGLYQGLSTATKDTYDALHMQALPPR
modifications: expressed in CAR T cells; GPC2-OX40z
As for B4, the “CAR positive T cells percentage” value with SH-SY5Y [2] is recorded as “gradual decline”.

B5: GPC2-CD27z: SEQ ID NO: 249, GPC2 CAR T comprised CD27 and CD3 ζ intracellular signaling domains (protein)
chain: MALPVTALLLPLALLLHAARPEVQLVESGGGLVQPGGSLRLSCAISEFTYKNTCVGWFRQAPGKGREGVAAIDSDGNTNYVDSVKGRFTISQDNSKNTVYLQMNSLRAEDTAMYYCAAGAYCGRLLLWIGNYAYWGQGTLVTVSSTTTPAPRPPTPAPTIASQPLSLRPEACRPAAGGAVHTRGLDFACDILVIFSGMFLVFTLAGALFLHQRRKYRSNKGESPVEPAEPCHYSCPREEEGSTIPIQEDYRKPEPACSPRVKFSRSADAPAYKQGQNQLYNELNLGRREEYDVLDKRRGRDPEMGGKPRRKNPQEGLYNELQKDKMAEAYSEIGMKGERRRGKGHDGLYQGLSTATKDTYDALHMQALPPR
modifications: expressed in CAR T cells; GPC2-CD27z
Regarding B5, the “CAR positive T cells percentage” value in the data set on SH-SY5Y [2] is given as “gradual decline”.

B6: CAS72052VH5-BBz: humanized VHH anti-GPC2 CAR (4-1BB, CD3ζ), SEQ ID NO: 224; tested as CAR T cells (protein)
chain: MALPVTALLLPLALLLHAARPQVQLVESGGGVVQPGGSLRLSCAVSGFRYASYCMGWFRQAPGKGLEGVAAIHSDGIIRYAESVKGRFTISKDNSKNTLYLQMNSLRAEDTAVYYCAAGAYCGADAILTLYDYAFWGQGTLVTVSSTTTPAPRPPTPAPTIASQPLSLRPEACRPAAGGAVHTRGLDFACDIYIWAPLAGTCGVLLLSLVITLYCKRGRKKLLYIFKQPFMRPVQTTQEEDGCSCRFPEEEEGGCELRVKFSRSADAPAYKQGQNQLYNELNLGRREEYDVLDKRRGRDPEMGGKPRRKNPQEGLYNELQKDKMAEAYSEIGMKGERRRGKGHDGLYQGLSTATKDTYDALHMQALPPR
modifications: expressed in CAR T cells; CAS72052VH5-BBz
Take B6: the IFNγ release entry with SH-SY5Y [1] and in the data set on IMR-32 was “high levels of IFNγ” throughout.

B7: GPC2-CD2z: SEQ ID NO:251, GPC2 CAR T comprised CD2 and CD3 ζ intracellular signaling domains (protein)
chain: MALPVTALLLPLALLLHAARPEVQLVESGGGLVQPGGSLRLSCAISEFTYKNTCVGWFRQAPGKGREGVAAIDSDGNTNYVDSVKGRFTISQDNSKNTVYLQMNSLRAEDTAMYYCAAGAYCGRLLLWIGNYAYWGQGTLVTVSSTTTPAPRPPTPAPTIASQPLSLRPEACRPAAGGAVHTRGLDFACDIYLIIGICGGGSLLMVFVALLVFYITKRKKQRSRRNDEELETRAHRVATEERGRKPHQIPASTPQNPATSQHPPPPPGHRSQAPSHRPPPPGHRVQHQPQKRPPAPSGTQVHQQKGPPLPRPRVQPKPPHGAAENSLSPSSNRVKFSRSADAPAYKQGQNQLYNELNLGRREEYDVLDKRRGRDPEMGGKPRRKNPQEGLYNELQKDKMAEAYSEIGMKGERRRGKGHDGLYQGLSTATKDTYDALHMQALPPR
modifications: expressed in CAR T cells; GPC2-CD2z
As to B7, the “CAR positive T cells percentage” value in the data set on SH-SY5Y [2] is listed as “gradual decline”.
